# In paper PMC12808100, “The non-catalytic DNA polymerase ε subunit is an NPF motif recognition protein” (Nature Communications, 2025):
# What was measured:
# [1] = target: His6-avi-MBP-tagged POLE2; assay: Single-point nHU-MS with recombinant His6-avi-MBP-POLE2 bait, Jurkat extract; type: binding, human; details: significant apparent affinity of endogenous prey protein for POLE2 bait; single-point nHU-MS; Figure S11
# Excerpt: So far, our study only focused on a few hand-picked NPF motifs and studied them as short synthetic peptides. However, many other proteins may be present in the proteome that could bind to POLE2 and their putative NPF motifs are embedded in their natural structures that can greatly affect their binding properties. To investigate interactions between POLE2 and intact, full length proteins proteome-wide, we used nHU-MS experiments with recombinant His6-avi-MBP-tagged POLE2 as bait and purified His6-avi-MBP as a control. Even though we are aware that this recombinant POLE2 may bind to NPF motifs with a somewhat altered affinity, we assumed that this would affect all NPF motif-mediated interactions equally, allowing an unbiased affinity ranking of all identified partners. Single point nHU measurements were performed at 26 μM POLE2 concentration and the recovered supernatant was measured by label free proteomic MS measurements (Fig. 3A, Supplementary Figs. 8A, 9, Supplementary Data 1).
# Single-point nHU experiments with protein baits were carried out nearly identically with two key modifications. First, the resin saturation step was carried out by mixing 50 μl streptavidin resin with 0.5−1 ml 50 μM biotinylated protein solution and the mixture was incubated for 1.5 h at 4 °C with constant agitation. Second, instead of using estimated bait concentrations, we measured it experimentally. An extra aliquot of resin stock was prepared alongside the nHU samples that were identically processed that were used to eluate the immobilized proteins under harsh conditions, in order to experimentally quantify the Cbait by using densitometry of Coomassie stained SDS-PAGE that included a protein calibration series. For this, 50 μl bait-saturated resin aliquots were mixed with 200 μl 4x Laemmli Sample Buffer (120 mM Tris-HCl pH 7, 8% SDS, 100 mM DTT, 32% glycerol, 0.004% bromphenol blue, 1% β-mercaptoethanol), instead of cell extract. After 15 min incubation at 95 °C, these samples were analyzed by SDS-PAGE using protein calibration standard, made from recombinant MBP. Densitometry was carried out after Coomassie staining on raw Tif images by using Fiji ImageJ 1.53c and experimental bait concentration were determined by adjusting for molecular weight differences between MBP and MBP-POLE2 constructs.
# Samples were digested overnight at 37 °C.
# [2] = tested on: POLE2 WT; assay: Proximity labeling MS, MAC3-tagged POLE2 WT in Flp-In T-REx 293 cells; type: cell-based, human; details: bait POLE2_WT
# [3] = tested on: POLE2 Y311F; assay: Proximity labeling MS, POLE2 Y311F; details: bait POLE2_Y311F
# [4] = tested on: POLE2 E520A; assay: Proximity labeling MS, POLE2 E520A; details: bait POLE2_E520A
# [5] = tested on: POLE2 S522A; assay: Proximity labeling MS, POLE2 S522A; details: bait POLE2_S522A
molecule,measurement,setting,value
"ASPA (protein, UniProt P45381 1-313, looked up) Aspartoacylase: MTSCHIAEEHIQKVAIFGGTHGNELTGVFLVKHWLENGAEIQRTGLEVKPFITNPRAVKKCTRYIDCDLNRIFDLENLGKKMSEDLPYEVRRAQEINHLFGPKDSEDSYDIIFDLHNTTSNMGCTLILEDSRNNFLIQMFHYIKTSLAPLPCYVYLIEHPSLKYATTRSIAKYPVGIEVGPQPQGVLRADILDQMRKMIKHALDFIHHFNEGKEFPPCAIEVYKIIEKVDYPRDENGEIAAIIHPNLQDQDWKPLHPGDPMFLTLDGKTIPLGGDCTVYPVFVNEAAYYEKKEAFAKTTKLTLNAKSIRCCLH",pKapp_sign,[1],5.902
"ABT1 (protein, UniProt Q9ULW3 1-272, looked up) Activator of basal …: MEAEESEKAATEQEPLEGTEQTLDAEEEQEESEEAACGSKKRVVPGIVYLGHIPPRFRPLHVRNLLSAYGEVGRVFFQAEDRFVRRKKKAAAAAGGKKRSYTKDYTEGWVEFRDKRIAKRVAASLHNTPMGARRRSPFRYDLWNLKYLHRFTWSHLSEHLAFERQVRRQRLRAEVAQAKRETDFYLQSVERGQRFLAADGDPARPDGSWTFAQRPTEQELRARKAARPGGRERARLATAQDKARSNKGLLARIFGAPPPSESMEGPSLVRDS",AvgSpec,[2]; mean of 6 replicates,7.33
same,Spec,[2]; replicate 1,9
same,Spec,[2]; replicate 2,11
same,Spec,[2]; replicate 3,13
same,Spec,[2]; replicate 4,4
same,Spec,[2]; replicate 5,2
same,Spec,[2]; replicate 6,5
same,SpecSum,[2]; sum of 6 replicates,44
same,FoldChange,[2]; versus control counts,6.05
same,AvgSpec,[3]; mean of 3 replicates,9.67
same,Spec,[3]; replicate 1,11
same,Spec,[3]; replicate 2,8
same,Spec,[3]; replicate 3,10
same,SpecSum,[3]; sum of 3 replicates,29
same,FoldChange,[3]; versus control counts,7.97
same,AvgSpec,[4]; mean of 3 replicates,9.33
same,Spec,[4]; replicate 1,14
same,Spec,[4]; replicate 2,7
same,Spec,[4]; replicate 3,7
same,SpecSum,[4]; sum of 3 replicates,28
same,FoldChange,[4]; versus control counts,7.7
same,AvgSpec,[5]; mean of 3 replicates,14.33
same,Spec,[5]; replicate 1,12
same,Spec,[5]; replicate 2,14
same,Spec,[5]; replicate 3,17
same,SpecSum,[5]; sum of 3 replicates,43
same,FoldChange,[5]; versus control counts,11.82
